Experimental data taken from US20220204580A1 (AstraZeneca / MedImmune, published 2022).
Numbered stars: 1 amine (or outer) side, 2 acyl side, 3 side chain; on linkers, the order of the positions; unused ones are H or OH. Bridge positions count the residues as written; N and C are the ends. Square brackets hold non-standard residues; d marks the D form. Side chains are listed from the residue outwards. Ends that are not written are not given here. * marks the point of attachment. C18 diacid = O=C(O)CCCCCCCCCCCCCCCCC(=O)*; γGlu = O=C(O)[C@H](CCC(=O)[*:2])N[*:1]; AEEA = NCCOCCOCC(=O)O; Aib = CC(C)(N)C(=O)O

T1: human calcitonin receptor (human, UniProt P30988 25-474)
T1 sequence (looked up): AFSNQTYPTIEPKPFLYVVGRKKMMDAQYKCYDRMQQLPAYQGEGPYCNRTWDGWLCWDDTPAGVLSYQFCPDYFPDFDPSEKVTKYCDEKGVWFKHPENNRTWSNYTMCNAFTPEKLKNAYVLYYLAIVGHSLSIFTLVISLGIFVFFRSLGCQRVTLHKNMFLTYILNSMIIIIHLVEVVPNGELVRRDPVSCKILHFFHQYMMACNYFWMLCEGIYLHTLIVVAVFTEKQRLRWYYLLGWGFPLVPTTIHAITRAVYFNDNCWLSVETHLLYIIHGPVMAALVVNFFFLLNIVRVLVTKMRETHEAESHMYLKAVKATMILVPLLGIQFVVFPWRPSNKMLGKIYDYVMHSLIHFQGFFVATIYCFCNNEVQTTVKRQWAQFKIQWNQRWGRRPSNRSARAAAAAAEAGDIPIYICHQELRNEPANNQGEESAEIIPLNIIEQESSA

T2: human amylin receptor (calcitonin receptor co-expressed with receptor activity modifying protein, RAMP3) (human, UniProt P30988 25-474; O60896 24-148)
T2 sequence (looked up) 1: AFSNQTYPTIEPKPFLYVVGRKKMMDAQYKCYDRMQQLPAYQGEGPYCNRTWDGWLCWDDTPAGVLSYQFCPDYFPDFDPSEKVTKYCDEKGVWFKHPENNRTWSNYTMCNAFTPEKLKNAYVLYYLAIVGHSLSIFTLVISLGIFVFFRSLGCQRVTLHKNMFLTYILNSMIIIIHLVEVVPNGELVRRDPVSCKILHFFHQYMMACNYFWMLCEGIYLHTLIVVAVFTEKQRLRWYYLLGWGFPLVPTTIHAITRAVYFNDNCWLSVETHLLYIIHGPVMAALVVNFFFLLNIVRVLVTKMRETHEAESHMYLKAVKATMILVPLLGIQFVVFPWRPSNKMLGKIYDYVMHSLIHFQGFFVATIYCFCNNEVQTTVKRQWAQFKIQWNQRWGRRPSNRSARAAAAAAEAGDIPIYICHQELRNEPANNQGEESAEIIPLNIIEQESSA
T2 sequence (looked up) 2: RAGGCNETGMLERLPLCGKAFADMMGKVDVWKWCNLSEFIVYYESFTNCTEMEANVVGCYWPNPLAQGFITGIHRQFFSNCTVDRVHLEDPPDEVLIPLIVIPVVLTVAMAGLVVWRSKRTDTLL


Assays:
[1] = target: T1, human calcitonin receptor; assay: cell-based or functional assay
[2] = target: T2, human amylin receptor (calcitonin …); assay: cell-based or functional assay

| Binder | EC50 (cAMP production) [1] [nM] | EC50 (cAMP production) [2] [nM] | Ratio (EC50 hCTR / EC50 hAMYR3) [2] |
| --- | --- | --- | --- |
| K([γGlu-C18 diacid])KCNTATCATQRLANFLVHSS[Aib]NFGPILPPTNVGSNTP-NH2 (disulfide 3-8; N-terminus assumed; SMILES CC[C@H](C)[C@H](NC(=O)[C@@H]1CCCN1C(=O)CNC(=O)[C@H](Cc1ccccc1)NC(=O)[C@H](CC(N)=O)NC(=O)C(C)(C)NC(=O)[C@H](CO)NC(=O)[C@H](CO)NC(=O)[C@H](Cc1c[nH]cn1)NC(=O)[C@@H](NC(=O)[C@H](CC(C)C)NC(=O)[C@H](Cc1ccccc1)NC(=O)[C@H](CC(N)=O)NC(=O)[C@H](C)NC(=O)[C@H](CC(C)C)NC(=O)[C@H](CCCNC(=N)N)NC(=O)[C@H](CCC(N)=O)NC(=O)[C@@H](NC(=O)[C@H](C)NC(=O)[C@@H]1CSSC[C@H](NC(=O)[C@H](CCCCN)NC(=O)[C@@H](N)CCCCNC(=O)CC[C@H](NC(=O)CCCCCCCCCCCCCCCCC(=O)O)C(=O)O)C(=O)N[C@@H](CC(N)=O)C(=O)N[C@@H]([C@@H](C)O)C(=O)N[C@@H](C)C(=O)N[C@@H]([C@@H](C)O)C(=O)N1)[C@@H](C)O)C(C)C)C(=O)N[C@@H](CC(C)C)C(=O)N1CCC[C@H]1C(=O)N1CCC[C@H]1C(=O)N[C@H](C(=O)N[C@@H](CC(N)=O)C(=O)N[C@H](C(=O)NCC(=O)N[C@@H](CO)C(=O)N[C@@H](CC(N)=O)C(=O)N[C@H](C(=O)N1CCC[C@H]1C(N)=O)[C@@H](C)O)C(C)C)[C@@H](C)O) [Peptide 58 (SEQ ID NO: 58)] | 0.065 | 0.071 | 1 |
| K([γGlu-C18 diacid])CNTATCATQRLANFLVHSS[Aib]NFGPI[dL]PPTNVGSNTY-NH2 (disulfide 2-7; N-terminus assumed; SMILES CC[C@H](C)[C@H](NC(=O)[C@@H]1CCCN1C(=O)CNC(=O)[C@H](Cc1ccccc1)NC(=O)[C@H](CC(N)=O)NC(=O)C(C)(C)NC(=O)[C@H](CO)NC(=O)[C@H](CO)NC(=O)[C@H](Cc1c[nH]cn1)NC(=O)[C@@H](NC(=O)[C@H](CC(C)C)NC(=O)[C@H](Cc1ccccc1)NC(=O)[C@H](CC(N)=O)NC(=O)[C@H](C)NC(=O)[C@H](CC(C)C)NC(=O)[C@H](CCCNC(=N)N)NC(=O)[C@H](CCC(N)=O)NC(=O)[C@@H](NC(=O)[C@H](C)NC(=O)[C@@H]1CSSC[C@H](NC(=O)[C@@H](N)CCCCNC(=O)CC[C@H](NC(=O)CCCCCCCCCCCCCCCCC(=O)O)C(=O)O)C(=O)N[C@@H](CC(N)=O)C(=O)N[C@@H]([C@@H](C)O)C(=O)N[C@@H](C)C(=O)N[C@@H]([C@@H](C)O)C(=O)N1)[C@@H](C)O)C(C)C)C(=O)N[C@H](CC(C)C)C(=O)N1CCC[C@H]1C(=O)N1CCC[C@H]1C(=O)N[C@H](C(=O)N[C@@H](CC(N)=O)C(=O)N[C@H](C(=O)NCC(=O)N[C@@H](CO)C(=O)N[C@@H](CC(N)=O)C(=O)N[C@H](C(=O)N[C@@H](Cc1ccc(O)cc1)C(N)=O)[C@@H](C)O)C(C)C)[C@@H](C)O) [Peptide 59 (SEQ ID NO: 59)] | 0.809 | 0.157 | 5 |
| K([γGlu-C18 diacid])KCNTATCATQRLANFLSHSS[Aib]NFGPILPPTNVGSPTY-NH2 (disulfide 3-8; N-terminus assumed; SMILES CC[C@H](C)[C@H](NC(=O)[C@@H]1CCCN1C(=O)CNC(=O)[C@H](Cc1ccccc1)NC(=O)[C@H](CC(N)=O)NC(=O)C(C)(C)NC(=O)[C@H](CO)NC(=O)[C@H](CO)NC(=O)[C@H](Cc1c[nH]cn1)NC(=O)[C@H](CO)NC(=O)[C@H](CC(C)C)NC(=O)[C@H](Cc1ccccc1)NC(=O)[C@H](CC(N)=O)NC(=O)[C@H](C)NC(=O)[C@H](CC(C)C)NC(=O)[C@H](CCCNC(=N)N)NC(=O)[C@H](CCC(N)=O)NC(=O)[C@@H](NC(=O)[C@H](C)NC(=O)[C@@H]1CSSC[C@H](NC(=O)[C@H](CCCCN)NC(=O)[C@@H](N)CCCCNC(=O)CC[C@H](NC(=O)CCCCCCCCCCCCCCCCC(=O)O)C(=O)O)C(=O)N[C@@H](CC(N)=O)C(=O)N[C@@H]([C@@H](C)O)C(=O)N[C@@H](C)C(=O)N[C@@H]([C@@H](C)O)C(=O)N1)[C@@H](C)O)C(=O)N[C@@H](CC(C)C)C(=O)N1CCC[C@H]1C(=O)N1CCC[C@H]1C(=O)N[C@H](C(=O)N[C@@H](CC(N)=O)C(=O)N[C@H](C(=O)NCC(=O)N[C@@H](CO)C(=O)N1CCC[C@H]1C(=O)N[C@H](C(=O)N[C@@H](Cc1ccc(O)cc1)C(N)=O)[C@@H](C)O)C(C)C)[C@@H](C)O) [Peptide 55 (SEQ ID NO: 55)] | 1.87 | 0.678 | 3 |
| K([AEEA-AEEA-γGlu-C18 diacid])GGGKCNTATCATQRLANFLVHSSNNFGPILPPTNVGSNTY-NH2 (disulfide 6-11) [Peptide 7 (SEQ ID NO: 7)] | 2.16 | 0.173 | 12 |

Now from value to binder:

| EC50 (cAMP production) [1] [nM] | EC50 (cAMP production) [2] [nM] | Ratio (EC50 hCTR / EC50 hAMYR3) [2] | Binder |
| --- | --- | --- | --- |
| 1.51 | 7.59 | 0.2 | K([γGlu-C18 diacid])KCNTATCATQRLANFLSHSS[Aib]NFGPILPPTNVPSNTY-NH2 (disulfide 3-8; N-terminus assumed; SMILES CC[C@H](C)[C@H](NC(=O)[C@@H]1CCCN1C(=O)CNC(=O)[C@H](Cc1ccccc1)NC(=O)[C@H](CC(N)=O)NC(=O)C(C)(C)NC(=O)[C@H](CO)NC(=O)[C@H](CO)NC(=O)[C@H](Cc1c[nH]cn1)NC(=O)[C@H](CO)NC(=O)[C@H](CC(C)C)NC(=O)[C@H](Cc1ccccc1)NC(=O)[C@H](CC(N)=O)NC(=O)[C@H](C)NC(=O)[C@H](CC(C)C)NC(=O)[C@H](CCCNC(=N)N)NC(=O)[C@H](CCC(N)=O)NC(=O)[C@@H](NC(=O)[C@H](C)NC(=O)[C@@H]1CSSC[C@H](NC(=O)[C@H](CCCCN)NC(=O)[C@@H](N)CCCCNC(=O)CC[C@H](NC(=O)CCCCCCCCCCCCCCCCC(=O)O)C(=O)O)C(=O)N[C@@H](CC(N)=O)C(=O)N[C@@H]([C@@H](C)O)C(=O)N[C@@H](C)C(=O)N[C@@H]([C@@H](C)O)C(=O)N1)[C@@H](C)O)C(=O)N[C@@H](CC(C)C)C(=O)N1CCC[C@H]1C(=O)N1CCC[C@H]1C(=O)N[C@H](C(=O)N[C@@H](CC(N)=O)C(=O)N[C@H](C(=O)N1CCC[C@H]1C(=O)N[C@@H](CO)C(=O)N[C@@H](CC(N)=O)C(=O)N[C@H](C(=O)N[C@@H](Cc1ccc(O)cc1)C(N)=O)[C@@H](C)O)C(C)C)[C@@H](C)O) [Peptide 54 (SEQ ID NO: 54)] |
| 0.493 | 0.07 | 7 | K([γGlu-C18 diacid])CNTATCATQRLANFLVHSS[Aib]NFGPILPPTNVGSNTY-NH2 (disulfide 2-7; N-terminus assumed; SMILES CC[C@H](C)[C@H](NC(=O)[C@@H]1CCCN1C(=O)CNC(=O)[C@H](Cc1ccccc1)NC(=O)[C@H](CC(N)=O)NC(=O)C(C)(C)NC(=O)[C@H](CO)NC(=O)[C@H](CO)NC(=O)[C@H](Cc1c[nH]cn1)NC(=O)[C@@H](NC(=O)[C@H](CC(C)C)NC(=O)[C@H](Cc1ccccc1)NC(=O)[C@H](CC(N)=O)NC(=O)[C@H](C)NC(=O)[C@H](CC(C)C)NC(=O)[C@H](CCCNC(=N)N)NC(=O)[C@H](CCC(N)=O)NC(=O)[C@@H](NC(=O)[C@H](C)NC(=O)[C@@H]1CSSC[C@H](NC(=O)[C@@H](N)CCCCNC(=O)CC[C@H](NC(=O)CCCCCCCCCCCCCCCCC(=O)O)C(=O)O)C(=O)N[C@@H](CC(N)=O)C(=O)N[C@@H]([C@@H](C)O)C(=O)N[C@@H](C)C(=O)N[C@@H]([C@@H](C)O)C(=O)N1)[C@@H](C)O)C(C)C)C(=O)N[C@@H](CC(C)C)C(=O)N1CCC[C@H]1C(=O)N1CCC[C@H]1C(=O)N[C@H](C(=O)N[C@@H](CC(N)=O)C(=O)N[C@H](C(=O)NCC(=O)N[C@@H](CO)C(=O)N[C@@H](CC(N)=O)C(=O)N[C@H](C(=O)N[C@@H](Cc1ccc(O)cc1)C(N)=O)[C@@H](C)O)C(C)C)[C@@H](C)O) [Peptide 56 (SEQ ID NO: 56)] |
| 0.235 | 0.098 | 2 | K([γGlu-C18 diacid])KCNTATCATQRLANFLSHSS[Aib]NFGPILPPTPVGSNTY-NH2 (disulfide 3-8; N-terminus assumed; SMILES CC[C@H](C)[C@H](NC(=O)[C@@H]1CCCN1C(=O)CNC(=O)[C@H](Cc1ccccc1)NC(=O)[C@H](CC(N)=O)NC(=O)C(C)(C)NC(=O)[C@H](CO)NC(=O)[C@H](CO)NC(=O)[C@H](Cc1c[nH]cn1)NC(=O)[C@H](CO)NC(=O)[C@H](CC(C)C)NC(=O)[C@H](Cc1ccccc1)NC(=O)[C@H](CC(N)=O)NC(=O)[C@H](C)NC(=O)[C@H](CC(C)C)NC(=O)[C@H](CCCNC(=N)N)NC(=O)[C@H](CCC(N)=O)NC(=O)[C@@H](NC(=O)[C@H](C)NC(=O)[C@@H]1CSSC[C@H](NC(=O)[C@H](CCCCN)NC(=O)[C@@H](N)CCCCNC(=O)CC[C@H](NC(=O)CCCCCCCCCCCCCCCCC(=O)O)C(=O)O)C(=O)N[C@@H](CC(N)=O)C(=O)N[C@@H]([C@@H](C)O)C(=O)N[C@@H](C)C(=O)N[C@@H]([C@@H](C)O)C(=O)N1)[C@@H](C)O)C(=O)N[C@@H](CC(C)C)C(=O)N1CCC[C@H]1C(=O)N1CCC[C@H]1C(=O)N[C@H](C(=O)N1CCC[C@H]1C(=O)N[C@H](C(=O)NCC(=O)N[C@@H](CO)C(=O)N[C@@H](CC(N)=O)C(=O)N[C@H](C(=O)N[C@@H](Cc1ccc(O)cc1)C(N)=O)[C@@H](C)O)C(C)C)[C@@H](C)O) [Peptide 53 (SEQ ID NO: 53)] |
